Columns and labels:
[1] = target: SARS-CoV-2 RBD, His-tagged, for antibody binding studies (SARS-CoV-2) (UniProt P0DTC2); test: BLI
[2] = target: SARS-CoV RBD, His-tagged, for antibody binding studies (SARS-CoV) (UniProt P59594); test: BLI

Row | Substance | Kd [1] | Kd [2]
1 | COVA1-16 Fab, His-tagged | 46 nM | 405 nM
2 | COVA1-16 IgG1 antibody | 0.2 nM | 125 nM
